According to patent US11819540B2, “Methods for treating and preventing neutrophil-derived net toxicity and thrombosis” (CHILDREN'S MEDICAL CENTER CORPORATION, priority 2011, dated 2023):
“Also recorded” adds a separate entry of the source.

Test system: blood clots (fibrin and NET scaffold)
Assay: Clot formation in recalcified blood with or without PAF-activated neutrophils (thrombolysis)
Type: cell-based, human
Details: tPA 25 μg/mL
Method: Fibrin polymerization was induced in blood by recalcification and incubated either in the absence (medium) or presence of neutrophils preactivated by PAF to induce NET formation (neutrophils+PAF). Samples were treated with DNase to digest extracellular traps or tPA for fibrin digestion. […] (Scale bar, 1 cm.) The graph presents quantification of the clots by weighing. […] Data are presented as mean±SEM, n=4; (ANOVA; ***P<0.001). The first bar in each x-axis category represents the untreated samples, the second bar represents the samples treated with DNase, the third bar represents the samples treated with tPA, and the fourth bar represents the samples treated with tPA and DNase.
The relative susceptibility of NETs and fibrin to serve as scaffolds for blood clots to thrombolysis was examined (FIG. 20). Neutrophils were prestimulated with platelet-activating factor to release NETs with recalcified blood under stirring conditions. Two-hundred-fifty microliters of 5×10^6 neutrophils per milliliter in RPMI medium were activated by platelet activating factor (50 μM Calbiochem) at 37° C. under static conditions to induce NET formation. Control samples were 250 μL medium alone, 250 μL of unstimulated neutrophils, or 250 μL of 50 μM PAF in medium. After 10 min, 250 μL of recalcified (40 mM CaCl2) ACD anticoagulated blood was added. The mixture was incubated under stirring conditions (1,000 rpm) at 37° C. using an Eppendorf Thermomixer. Indicated samples were supplemented with tPA (25 μg/mL, Baxter) or DNase 1 (100 U/mL, Worthington Biochem). After 20 min, the blood was passed through a 100-μm cell strainer to isolate the clot. Images were acquired and the clot was determined. Thereafter, 10-μm frozen sections of the clot were prepared and stained for fibrinogen (mouse-antihuman-fibrinogen, Sigma) and VWF (rabbit-antihuman-VWF, Chemicon). Isotype control antibodies were used to determine background staining and DNA was labeled fluorescently by Hoechst 33258 (Invitrogen).

B1: tPA: tissue plasminogen activator (25 μg/mL, Baxter) for fibrin digestion (protein, UniProt P00750 36-562, looked up)
Tissue-type plasminogen …: SYQVICRDEKTQMIYQQHQSWLRPVLRSNRVEYCWCNSGRAQCHSVPVKSCSEPRCFNGGTCQQALYFSDFVCQCPEGFAGKCCEIDTRATCYEDQGISYRGTWSTAESGAECTNWNSSALAQKPYSGRRPDAIRLGLGNHNYCRNPDRDSKPWCYVFKAGKYSSEFCSTPACSEGNSDCYFGNGSAYRGTHSLTESGASCLPWNSMILIGKVYTAQNPSAQALGLGKHNYCRNPDGDAKPWCHVLKNRRLTWEYCDVPSCSTCGLRQYSQPQFRIKGGLFADIASHPWQAAIFAKHRRSPGERFLCGGILISSCWILSAAHCFQERFPPHHLTVILGRTYRVVPGEEEQKFEVEKYIVHKEFDDDTYDNDIALLQLKSDSSRCAQESSVVRTVCLPPADLQLPDWTECELSGYGKHEALSPFYSERLKEAHVRLYPSSRCTSQHLLNRTVTDNMLCAGDTRSGGPQANLHDACQGDSGGPLVCLNDGRMTLVGIISWGLGCGQKDVPGVYTKVTNYLDWIRDNMRP
With B1 the clot formation (absence of activated neutrophils (medium), DNase 100 U/mL) was “prevented clot formation”, the fibrin in clot (presence of PAF-activated neutrophils) was “removed fibrin” and the “clot formation / clot size” value (presence of PAF-activated neutrophils, DNase 100 U/mL) was “did not prevent clot formation; also recorded: reduced clot size”.
